± gives the uncertainty stated by the source.
System: HEK293T
Test: plasma membrane surface immunostaining intensity (anti-HA, deep receptor scanning) (arbitrary fluorescence units); higher = higher plasma membrane expression

Row | Sequence | plasma membrane surface immunostaining intensity (GPCR class: A) | further results
1 | MEKLLRLCCWYSWLLLFYYNFQVRGVYSRSQDHPGFQVLASASHYWPLENVDGIHELQDTTGDIVEGKVNKGIYLKEEKGVTLLYYGRYNSSCISKPEQCGPEGVTFSFFWKTQGEQSRPIPSAYGGQVISNGFKVCSSGGRGSVELYTRDNSMTWEASFSPPGPYWTHVLFTWKSKEGLKVYVNGTLSTSDPSGKVSRDYGESNVNLVIGSEQDQAKCYENGAFDEFIIWERALTPDEIAMYFTAAIGKHALLSSTLPSLFMTSTASPVMPTDAYHPIITNLTEERKTFQSPGVILSYLQNVSLSLPSKSLSEQTALNLTKTFLKAVGEILLLPGWIALSEDSAVVLSLIDTIDTVMGHVSSNLHGSTPQVTVEGSSAMAEFSVAKILPKTVNSSHYRFPAHGQSFIQIPHEAFHRHAWSTVVGLLYHSMHYYLNNIWPAHTKIAEAMHHQDCLLFATSHLISLEVSPPPTLSQNLSGSPLITVHLKHRLTRKQHSEATNSSNRVFVYCAFLDFSSGEGVWSNHGCALTRGNLTYSVCRCTHLTNFAILMQVVPLELARGHQVALSSISYVGCSLSVLCLVATLVTFAVLSSVSTIRNQRYHIHANLSFAVLVAQVLLLISFRLEPGTTPCQVMAVLLHYFFLSAFAWMLVEGLHLYSMVIKVFGSEDSKHRYYYGMGWGFPLLICIISLSFAMDSYGTSNNCWLSLASGAIWAFVAPALFVIVVNIGILIAVTRVISQISADNYKIHGDPSAFKLTAKAVAVLLPILGTSWVFGVLAVNGCAVVFQYMFATLNSLQGLFIFLFHCLLNSEVRAAFKHKTKVWSLTSSSARTSNAKPFHSDLMNGTRPGMASTKLSPWDKSSHSAHRVDLSAV [ADGRD1] |  | plasma membrane surface immunostaining intensity (GPCR class: B): 1550 ± 390
2 | MAEMNLTLVTEFLLIAFTEYPEWALPLFLLFLFMYLITVLGNLEMIILILMDHQLHAPMYFLLSHLAFMDVCYSSITVPQMLAVLLEHGAALSYTRCAAQFFLFTFFGSIDCYLLALMAYDRYLAVCQPLLYVTILTQQARLSLVAGAYVAGLISALVRTVSAFTLSFCGTSEIDFIFCDLPPLLKLTCGESYTQEVLIIMFAIFVIPASMVVILVSYLFIIVAIMGIPAGSQAKTFSTCTSHLTAVSLFFGTLIFMYLRGNSDQSSEKNRVVSVLYTEVIPMLNPLIYSLRNKEVKEALRKILNRAKLS [OR9Q1] |  | plasma membrane surface immunostaining intensity (GPCR class: A (Olfactory)): 422 ± 160
3 | MDNLTKVTEFLLMEFSGIWELQVLHAGLFLLIYLAVLVGNLLIIAVITLDQHLHTPMYFFLKNLSVLDLCYISVTVPKSIRNSLTRRSSISYLGCVAQVYFFSAFASAELAFLTVMSYDRYVAICHPLQYRAVMTSGGCYQMAVTTWLSCFSYAAVHTGNMFREHVCRSSVIHQFFRDIPHVLALVSCEVFFVEFLTLALSSCLVLGCFILMMISYFQIFSTVLRIPSGQSRAKAFSTCSPQLIVIMLFLTTGLFAALGPIAKALSIQDLVIALTYTVLPPFLNPIIYSLRNKEIKTAMWRLFVKIYFLQK [OR14I1] |  | plasma membrane surface immunostaining intensity (GPCR class: A (Olfactory)): 118 ± 14
4 | MMCFLLIISSILVVFAFVLGNVANGFIALVNVIDWVNTRKISSAEQILTALVVSRIGLLWVMLFLWYATVFNSALYGLEVRIVASNAWAVTNHFSMWLAASLSIFCLLKIANFSNLISLHLKKRIKSVVLVILLGPLVFLICNLAVITMDERVWTKEYEGNVTWKIKLRNAIHLSSLTVTTLANLIPFTLSLICFLLLICSLCKHLKKMRLHSKGSQDPSTKVHIKALQTVTSFLMLFAIYFLCIITSTWNLRTQQSKLVLLLCQTVAIMYPSFHSFILIMGSRKLKQTFLSVLWQMTR [TAS2R19] |  | plasma membrane surface immunostaining intensity (GPCR class: Taste): 370 ± 230
5 | MSNATLLTAFILTGLPHAPGLDAPLFGIFLVVYVLTVLGNLLILLVIRVDSHLHTPMYYFLTNLSFIDMWFSTVTVPKMLMTLVSPSGRTISFHSCVAQLYFFHFLGSTECFLYTVMSYDRYLAISYPLRYTNMMTGRSCALLATGTWLSGSLHSAVQTILTFHLPYCGPNQIQHYFCDAPPILKLACADTSANEMVIFVNIGLVASGCFVLIVLSYVSIVCSILRIRTSEGRHRAFQTCASHCIVVLCFFGPGLFIYLRPGSRDALHGVVAVFYTTLTPLFNPVVYTLRNKEVKKALLKLKNGSVFAQGE [OR10G7] |  | plasma membrane surface immunostaining intensity (GPCR class: A (Olfactory)): 315 ± 110
6 | MTNSSFFCPVYKDLEPFTYFFYLVFLVGIIGSCFATWAFIQKNTNHRCVSIYLINLLTADFLLTLALPVKIVVDLGVAPWKLKIFHCQVTACLIYINMYLSIIFLAFVSIDRCLQLTHSCKIYRIQEPGFAKMISTVVWLMVLLIMVPNMMIPIKDIKEKSNVGCMEFKKEFGRNWHLLTNFICVAIFLNFSAIILISNCLVIRQLYRNKDNENYPNVKKALINILLVTTGYIICFVPYHIVRIPYTLSQTEVITDCSTRISLFKAKEATLLLAVSNLCFDPILYYHLSKAFRSKVTETFASPKETKAQKEKLRCENNA [GPR171] | 455 ± 49 | 
7 | MAATASPQPLATEDADSENSSFYYYDYLDEVAFMLCRKDAVVSFGKVFLPVFYSLIFVLGLSGNLLLLMVLLRYVPRRRMVEIYLLNLAISNLLFLVTLPFWGISVAWHWVFGSFLCKMVSTLYTINFYSGIFFISCMSLDKYLEIVHAQPYHRLRTRAKSLLLATIVWAVSLAVSIPDMVFVQTHENPKGVWNCHADFGGHGTIWKLFLRFQQNLLGFLLPLLAMIFFYSRIGCVLVRLRPAGQGRALKIAAALVVAFFVLWFPYNLTLFLHTLLDLQVFGNCEVSQHLDYALQVTESIAFLHCCFSPILYAFSSHRFRQYLKAFLAAVLGWHLAPGTAQASLSSCSESSILTAQEEMTGMNDLGERQSENYPNKEDVGNKSA [ACKR2] | 6400 ± 110 | 
8 | MAQQWSLQRLAGRHPQDSYEDSTQSSIFTYTNSNSTRGPFEGPNYHIAPRWVYHLTSVWMIFVVIASVFTNGLVLAATMKFKKLRHPLNWILVNLAVADLAETVIASTISVVNQVYGYFVLGHPMCVLEGYTVSLCGITGLWSLAIISWERWMVVCKPFGNVRFDAKLAIVGIAFSWIWAAVWTAPPIFGWSRYWPHGLKTSCGPDVFSGSSYPGVQSYMIVLMVTCCITPLSIIVLCYLQVWLAIRAVAKQQKESESTQKAEKEVTRMVVVMVLAFCFCWGPYAFFACFAAANPGYPFHPLMAALPAFFAKSATIYNPVIYVFMNRQFRNCILQLFGKKVDDGSELSSASKTEVSSVSSVSPA [OPN1MW3] | 288 ± 18 | 
9 | MQMADAATIATMNKAAGGDKLAELFSLVPDLLEAANTSGNASLQLPDLWWELGLELPDGAPPGHPPGSGGAESADTEARVRILISVVYWVVCALGLAGNLLVLYLMKSMQGWRKSSINLFVTNLALTDFQFVLTLPFWAVENALDFKWPFGKAMCKIVSMVTSMNMYASVFFLTAMSVTRYHSVASALKSHRTRGHGRGDCCGRSLGDSCCFSAKALCVWIWALAALASLPSAIFSTTVKVMGEELCLVRFPDKLLGRDRQFWLGLYHSQKVLLGFVLPLGIIILCYLLLVRFIADRRAAGTKGGAAVAGGRPTGASARRLSKVTKSVTIVVLSFFLCWLPNQALTTWSILIKFNAVPFSQEYFLCQVYAFPVSVCLAHSNSCLNPVLYCLVRREFRKALKSLLWRIASPSITSMRPFTATTKPEHEDQGLQAPAPPHAAAEPDLLYYPPGVVVYSGGRYDLLPSSSAY [RXFP3] | 979 ± 290 | 
10 | MEPSATPGAQMGVPPGSREPSPVPPDYEDEFLRYLWRDYLYPKQYEWVLIAAYVAVFVVALVGNTLVCLAVWRNHHMRTVTNYFIVNLSLADVLVTAICLPASLLVDITESWLFGHALCKVIPYLQAVSVSVAVLTLSFIALDRWYAICHPLLFKSTARRARGSILGIWAVSLAIMVPQAAVMECSSVLPELANRTRLFSVCDERWADDLYPKIYHSCFFIVTYLAPLGLMAMAYFQIFRKLWGRQIPGTTSALVRNWKRPSDQLGDLEQGLSGEPQPRARAFLAEVKQMRARRKTAKMLMVVLLVFALCYLPISVLNVLKRVFGMFRQASDREAVYACFTFSHWLVYANSAANPIIYNFLSGKFREQFKAAFSCCLPGLGPCGSLKAPSPRSSASHKSLSLQSRCSISKISEHVVLTSVTTVLP [HCRTR1] | 1070 ± 130 | 
11 | MLSAGLGLLMLVAVVEFLIGLIGNGSLVVWSFREWIRKFNWSSYNLIILGLAGCRFLLQWLIILDLSLFPLFQSSRWLRYLSIFWVLVSQASLWFATFLSVFYCKKITTFDRPAYLWLKQRAYNLSLWCLLGYFIINLLLTVQIGLTFYHPPQGNSSIRYPFESWQYLYAFQLNSGSYLPLVVFLVSSGMLIVSLYTHHKKMKVHSAGRRDVRAKAHITALKSLGCFLLLHLVYIMASPFSITSKTYPPDLTSVFIWETLMAAYPSLHSLILIMGIPRVKQTCQKILWKTVCARRCWGP [TAS2R5] |  | plasma membrane surface immunostaining intensity (GPCR class: Taste): 123 ± 18
12 | MELLKLNRSVQGTGPGPGASLCRPGAPLLNSSSVGNLSCEPPRIRGAGTRELELAIRITLYAVIFLMSVGGNMLIIVVLGLSRRLRTVTNAFLLSLAVSDLLLAVACMPFTLLPNLMGTFIFGTVICKAVSYLMGVSVSVSTLSLVAIALERYSAICRPLQARVWQTRSHAARVIVATWLLSGLLMVPYPVYTVVQPVGPRVLQCVHRWPSARVRQTWSVLLLLLLFFIPGVVMAVAYGLISRELYLGLRFDGDSDSDSQSRVRNQGGLPGAVHQNGRCRPETGAVGEDSDGCYVQLPRSRPALELTALTAPGPGSGSRPTQAKLLAKKRVVRMLLVIVVLFFLCWLPVYSANTWRAFDGPGAHRALSGAPISFIHLLSYASACVNPLVYCFMHRRFRQACLETCARCCPRPPRARPRALPDEDPPTPSIASLSRLSYTTISTLGPG [CCKBR] | 2920 ± 830 | 
13 | MQALNITPEQFSRLLRDHNLTREQFIALYRLRPLVYTPELPGRAKLALVLTGVLIFALALFGNALVFYVVTRSKAMRTVTNIFICSLALSDLLITFFCIPVTMLQNISDNWLGGAFICKMVPFVQSTAVVTEILTMTCIAVERHQGLVHPFKMKWQYTNRRAFTMLGVVWLVAVIVGSPMWHVQQLEIKYDFLYEKEHICCLEEWTSPVHQKIYTTFILVILFLLPLMVMLILYSKIGYELWIKKRVGDGSVLRTIHGKEMSKIARKKKRAVIMMVTVVALFAVCWAPFHVVHMMIEYSNFEKEYDDVTIKMIFAIVQIIGFSNSICNPIVYAFMNENFKKNVLSAVCYCIVNKTFSPAQRHGNSGITMMRKKAKFSLRENPVEETKGEAFSDGNIEVKLCEQTEEKKKLKRHLALFRSELAENSPLDSGH [QRFPR] | 392 ± 31 | 
14 | MVNLRNAVHSFLVHLIGLLVWQSDISVSPVAAIVTDIFNTSDGGRFKFPDGVQNWPALSIVIIIIMTIGGNILVIMAVSMEKKLHNATNYFLMSLAIADMLVGLLVMPLSLLAILYDYVWPLPRYLCPVWISLDVLFSTASIMHLCAISLDRYVAIRNPIEHSRFNSRTKAIMKIAIVWAISIGVSVPIPVIGLRDEEKVFVNNTTCVLNDPNFVLIGSFVAFFIPLTIMVITYCLTIYVLRRQALMLLHGHTEEPPGLSLDFLKCCKRNTAEEENSANPNQDQNARRRKKKERRPRGTMQAINNERKASKVLGIVFFVFLIMWCPFFITNILSVLCEKSCNQKLMEKLLNVFVWIGYVCSGINPLVYTLFNKIYRRAFSNYLRCNYKVEKKPPVRQIPRVAATALSGRELNVNIYRHTNEPVIEKASDNEPGIEMQVENLELPVNPSSVVSERISSV [HTR2C] | 974 ± 180 | 
15 | MKIANNTVVTEFILLGLTQSQDIQLLVFVLILIFYLIILPGNFLIIFTIRSDPGLTAPLYLFLGNLAFLDASYSFIVAPRMLVDFLSEKKVISYRGCITQLFFLHFLGGGEGLLLVVMAFDRYIAICRPLHCSTVMNPRACYAMMLALWLGGFVHSIIQVVLILRLPFCGPNQLDNFFCDVRQVIKLACTDMFVVELLMVFNSGLMTLLCFLGLLASYAVILCHVRRAASEGKNKAMSTCTTRVIIILLMFGPAIFIYMCPFRALPADKMVSLFHTVIFPLMNPMIYTLRNQEVKTSMKRLLSRHVVCQVDFIIRN [OR4N4] |  | plasma membrane surface immunostaining intensity (GPCR class: A (Olfactory)): 255 ± 110

Source: the supplement of paper PMC12458215
